Test results taken from the supplement of paper PMC10567573.

B1: VPS39 (parent)
chain: QQVKCIITEEKVCMVCKKKIGNSA
B2: GLTSCR2 (parent)
chain: YNPSFEDHQTLLSAAHEVELQRQK

Variants of: B1
Assay: protein stability index of a GFP-peptide fusion (GPS, HEK-293T) (PSI 1-6); higher = more stable
Settings: c terminus: a fixed tail appended
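Further: lentivirally expressed fusions sorted by FACS into six bins by GFP to DsRed ratio, PSI derived from sequencing read proportions per bin multiplied by bin number.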

| Variant | protein stability index |
| --- | --- |
| C13K | 2.82 |
| C13G | 3.48 |
| C13S | 3.52 |
| C13H | 3.62 |
| C13F | 2.54 |
| C13W | 2.6 |
| C13E | 4.41 |
| C13L | 3.1 |
| C13Q | 3.78 |
| C13T | 3.83 |
| C13P | 3.78 |
| C13R | 3.95 |
| C13A | 3.88 |
| C13D | 4.67 |
| C13N | 4.4 |
| C13Y | 2.91 |
| C13I | 3.09 |
| C13V | 2.59 |
| C13M | 2.98 |
| N22R | 1.84 |
| N22H | 2.25 |
| N22Q | 3.38 |
| N22T | 2.29 |
| N22M | 2.75 |
| N22C | 2.98 |
| N22K | 2.79 |

| Variant | protein stability index |
| --- | --- |
| N22G | 1.42 |
| N22S | 2.62 |
| N22E | 3.33 |
| N22V | 2.11 |
| N22Y | 1.99 |
| N22F | 2 |
| N22I | 1.75 |
| N22L | 2.57 |
| N22W | 1.81 |
| N22D | 3.7 |
| N22A | 2.21 |
| K18H | 3.24 |
| K18F | 1.98 |
| K18I | 2.43 |
| K18T | 2.08 |
| K18D | 3.4 |
| K18A | 2.88 |
| K18S | 3.09 |
| K18M | 1.57 |
| K18C | 2.02 |
| K18N | 2.94 |
| K18Q | 2.5 |
| K18V | 1.78 |
| K18E | 3.09 |
| K18P | 2.37 |
| K18R | 2.33 |

| Variant | protein stability index |
| --- | --- |
| K18Y | 1.41 |
| K18W | 1.02 |
| K18G | 2.56 |
| K18L | 2.16 |
| E9Q | 1.85 |
| E9T | 2.08 |
| E9S | 3.77 |
| E9R | 1.54 |
| E9P | 2.46 |
| E9W | 1.35 |
| E9V | 1.95 |
| E9Y | 1.9 |
| K17C | 3.34 |
| K17M | 2.29 |
| K17N | 3.05 |
| K17D | 3.68 |
| K17V | 1.54 |
| K17T | 2.5 |
| K17I | 1.74 |
| K17L | 1.42 |
| K17R | 2.27 |
| K17E | 3.21 |
| K17S | 2.82 |
| K17F | 2.85 |
| K17P | 3 |
| K17W | 2.66 |

| Variant | protein stability index |
| --- | --- |
| K17Q | 3.11 |
| K17G | 3.58 |
| K17Y | 3.09 |
| K17H | 2.46 |
| K11G | 2.35 |
| K11M | 1.8 |
| K11L | 1.87 |
| K11E | 2.87 |
| K11P | 3.15 |
| K11F | 1.75 |
| K11I | 2.44 |
| K11Q | 2.84 |
| K11S | 2.9 |
| K11T | 2.55 |
| K11A | 3.64 |
| K11Y | 1.77 |
| K11C | 4.08 |
| K11R | 2.9 |
| K11W | 2.08 |
| K11V | 2.39 |
| K11D | 2.52 |
| K11N | 2.89 |
| K11H | 3.3 |
| G21A | 2.98 |
| G21H | 2.93 |
| G21D | 2.81 |

| Variant | protein stability index |
| --- | --- |
| G21V | 3.1 |
| G21R | 2.16 |
| G21F | 2.87 |
| G21Q | 2.76 |
| G21T | 2.51 |
| G21M | 2.13 |
| G21W | 1.76 |
| G21E | 3.32 |
| G21N | 3.01 |
| G21C | 3.19 |
| G21P | 2.55 |
| G21L | 2.31 |
| G21S | 2.7 |
| G21I | 3.17 |
| G21K | 3.08 |
| G21Y | 2.3 |
| K19A | 2.38 |
| K19F | 1.72 |
| K19Y | 2.09 |
| K19M | 1.67 |
| K19P | 2.14 |
| K19W | 1.76 |
| K19H | 2.12 |
| K19E | 2.89 |
| K19V | 2.5 |
| K19T | 2.66 |

| Variant | protein stability index |
| --- | --- |
| K19D | 3.52 |
| K19N | 2.15 |
| K19Q | 2.19 |
| K19C | 3.48 |
| K19R | 2.28 |
| K19L | 2.56 |
| K19S | 2.25 |
| K19G | 2.48 |
| S23D | 3.6 |
| S23T | 2.78 |
| S23Y | 2.41 |
| S23P | 2.4 |
| S23W | 1.82 |
| S23F | 1.95 |
| S23A | 3.52 |
| S23K | 3.09 |
| S23V | 2.19 |
| S23I | 1.73 |
| S23L | 1.45 |
| S23N | 2.41 |
| S23G | 3.05 |
| S23R | 2.77 |
| S23H | 2.98 |
| S23C | 3.62 |
| S23E | 4.07 |
| S23Q | 2.5 |

| Variant | protein stability index |
| --- | --- |
| M14W | 2.02 |
| M14Y | 2.57 |
| M14A | 2.49 |
| M14I | 2.14 |
| M14F | 2.89 |
| M14V | 2.8 |
| M14K | 3.44 |
| M14H | 3.13 |
| M14Q | 3.06 |
| M14E | 3.61 |
| M14N | 2.67 |
| M14T | 3.3 |
| M14P | 3.15 |
| M14C | 4.14 |
| V15H | 3.43 |
| V15C | 3.26 |
| V15Y | 2.17 |
| V15T | 3.68 |
| V15G | 2.71 |
| V15L | 2.82 |
| V15S | 3.74 |
| V15A | 3.32 |
| V15E | 4.38 |
| V15N | 3.08 |
| V15M | 2.83 |
| V15Q | 2.6 |

| Variant | protein stability index |
| --- | --- |
| V15D | 3.34 |
| V15R | 3.07 |
| V15W | 2.97 |
| V15K | 3.05 |
| V15F | 2.92 |
| V15P | 3.99 |
| V15I | 2.27 |
| V12E | 3.96 |
| V12T | 2.69 |
| V12S | 3.41 |
| V12R | 2.88 |
| V12K | 2.94 |
| V12N | 3.68 |
| V12A | 3.41 |
| V12F | 2.11 |
| V12I | 3.06 |
| V12M | 2.81 |
| V12W | 1.98 |
| V12Y | 2.31 |
| V12P | 3.44 |
| V12G | 3.55 |
| V12L | 2.86 |
| V12D | 3.87 |
| V12H | 2.64 |
| V12C | 2.09 |
| V12Q | 2.5 |

| Variant | protein stability index |
| --- | --- |
| E10D | 1.95 |
| E10K | 2.54 |
| E10N | 2.01 |
| E10C | 3.05 |
| E10I | 2.34 |
| E10Y | 2.65 |
| E10T | 2.41 |
| E10R | 2.23 |
| E10F | 1.97 |
| E10A | 1.9 |
| E10G | 2.41 |
| E10L | 1.47 |
| E10Q | 2.29 |
| E10P | 2.69 |
| E10H | 2.13 |
| E10S | 2.03 |
| E10M | 2.4 |
| E10W | 2.44 |
| C16I | 2.19 |
| C16A | 3.96 |
| C16Y | 3.69 |
| C16W | 2.5 |
| C16N | 3.88 |
| C16H | 3.79 |
| C16L | 3.07 |
| C16T | 3.72 |

| Variant | protein stability index |
| --- | --- |
| C16F | 3.15 |
| C16E | 4.29 |
| C16M | 3.13 |
| C16K | 3.41 |
| C16R | 4.5 |
| C16Q | 3.93 |
| C16S | 3.45 |
| C16G | 4.28 |
| C16D | 4.91 |
| C16P | 4.22 |
| A24Y | 2.57 |
| A24H | 2.23 |
| A24Q | 2.79 |
| A24C | 3.03 |
| A24K | 3.03 |
| A24N | 2.84 |
| A24E | 2.48 |
| A24T | 2.93 |
| A24M | 2.54 |
| A24P | 3.03 |
| A24V | 2.24 |
| A24S | 2.37 |
| A24D | 3.35 |
| A24W | 2.07 |
| A24I | 2.49 |
| A24F | 2.1 |

| Variant | protein stability index |
| --- | --- |
| A24G | 2.29 |
| A24L | 1.74 |
| I20E | 4.03 |
| I20P | 3.17 |
| I20L | 3.15 |
| I20T | 2.89 |
| I20F | 3.06 |
| I20D | 3.51 |
| I20K | 3.58 |
| I20S | 3.67 |
| I20V | 1.95 |
| I20R | 3.26 |
| I20N | 2.69 |
| I20G | 2.79 |
| I20A | 3.35 |
| I20C | 3.26 |
| I20M | 3.33 |
| I20Q | 3.53 |
| I20H | 4.29 |
| I20Y | 3.15 |

Variants of: B2
Assay: as above
Settings: c terminus: a fixed tail appended

| Variant | protein stability index |
| --- | --- |
| L11N | 4.96 |
| L11S | 4.95 |
| P3H | 4.67 |
| P3A | 4.25 |
| P3D | 4.32 |
| P3G | 4.35 |
| Q9C | 3.06 |
| Q9T | 3.56 |
| D7F | 2.81 |
| D7E | 3.46 |
| D7M | 3.23 |
| E6R | 2.57 |
| E6Y | 2.67 |
| Q21S | 3.96 |
| Q21V | 3.28 |
| E17N | 3.33 |
| E17K | 3.43 |
| E17D | 3.85 |
| F5C | 4 |
| F5Q | 4.62 |
| F5K | 2.48 |
| T10M | 2.87 |
| T10D | 4.32 |
| T10C | 3.19 |
| V18A | 4 |
| V18N | 3.8 |
| Q23P | 3.96 |

| Variant | protein stability index |
| --- | --- |
| Q23D | 4.23 |
| Q23I | 3.23 |
| K24Y | 3.18 |
| K24W | 2.79 |
| E19P | 3.86 |
| A15S | 4.07 |
| A15F | 2.47 |
| S4K | 4.17 |
| S4Q | 4.28 |
| S4V | 4.02 |
| L20G | 4.16 |
| R22Y | 3.16 |
| R22K | 4.13 |
| R22I | 2.91 |
| Y1D | 5.25 |
| Y1F | 3.65 |
| Y1G | 5.36 |
| Y1Q | 5.07 |
| H8V | 2.33 |
| H8N | 4.29 |
| L12V | 4.15 |
| L12H | 4.61 |
| L12G | 4.23 |
| A14N | 4.04 |
| A14H | 3.64 |
| A14G | 3.52 |
| A14T | 4.04 |
